Source: publication PMC4336380, “Promiscuous Binding of Karyopherinβ1 Modulates FG Nucleoporin Barrier Function and Expedites NTF2 Transport Kinetics” (Biophysical Journal, 2015)

Molecular target: T1, wild-type rat NTF2 (nuclear transport factor 2) (rat, UniProt P61972 1-127)
T1 construct: also called wild-type NTF2; source: E. coli BL21(DE3) CodonPlus RIL, purified (NiNTA agarose, gel filtration Superdex S-75)
Test: SPR; Biacore T100, 25°C, PBS pH 7.2; Nsp1p fragment grafted on gold; multivalent kinetic analysis: discrete distribution of kinetic states (kon,i, koff,i), interaction maps averaged over ~10 sensorgrams
Details: both partners purified

T1 sequence (P61972 whole entry): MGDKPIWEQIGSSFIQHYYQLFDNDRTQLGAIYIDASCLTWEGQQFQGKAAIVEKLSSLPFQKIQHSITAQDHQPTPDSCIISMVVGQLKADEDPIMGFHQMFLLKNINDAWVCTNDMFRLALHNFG

binding result: binds
B1: Nsp1p-5FF (yeast Nsp1p FG fragment, residues 262-359; 1x FG, 4x FSFG) (domain or fragment)
chain: not shown
notes: Nsp1p, yeast, FG fragment residues 262-359 (1x FG, 4x FSFG), in a modified pET30a vector; Grafted to the gold SPR sensor through the added N-terminal Cys residues; The vector carries a TEV site in place of the thrombin site; no cleavage is described; source: E. coli BL21(DE3) CodonPlus RIL, purified (NiNTA agarose, Superdex S-75); not shown: Cys-Cys-Trp (after the initiator Met), N-terminal, …
